Assay results from the RNAGym collection of RNA variant scans (doi:10.1021/acssynbio.7b00057).

B1: Pistol ribozyme (parent)
chain: GGGUCGUUGUUCCAUAAUCGCGUGGAUAUGGCACGCAAGUUUCUACCGGGCACCGUAAAUGUCCGACUGGAGCCGUUCGGGCGGCUAUAAACAGACCUCAGGCCCGAAGCGUGGCGGCACCUGCCGCCGGUGGUAAAAAAGAUCGGAAGAGCACACGUCU

Variants of: B1
Test: aptazyme ON/OFF ratio, guanine; higher = stronger switching; co-transcriptional cleavage with and without guanine

Variant	aptazyme ON/OFF ratio
GGGUCGACAUUCAAUAAUCGCGUGGAUAUGGCACGCAAGUUUCUACCGGGCACCGUAAAUGUCCGACUGGAGCCGUUCGGGCGGCUAUAAACAGACCUCAGGCCCGAAGCGUGGCGGCACCUGCCGCCGGUGGUAAAAAAGAUCGGAAGAGCACACGUCU	1.14
GGGUCGACAUUCGAUAAUCGCGUGGAUAUGGCACGCAAGUUUCUACCGGGCACCGUAAAUGUCCGACUGGAGCCGUUCGGGCGGCUAUAAACAGACCUCAGGCCCGAAGCGUGGCGGCACCUGCCGCCGGUGGUAAAAAAGAUCGGAAGAGCACACGUCU	1.04
GGGUCGACAUUCUAUAAUCGCGUGGAUAUGGCACGCAAGUUUCUACCGGGCACCGUAAAUGUCCGACUGGAGCCGUUCGGGCGGCUAUAAACAGACCUCAGGCCCGAAGCGUGGCGGCACCUGCCGCCGGUGGUAAAAAAGAUCGGAAGAGCACACGUCU	1.18
GGGUCGACAAUAUAUAAUCGCGUGGAUAUGGCACGCAAGUUUCUACCGGGCACCGUAAAUGUCCGACUGGAGCCGUUCGGGCGGCUAUAAACAGACCUCAGGCCCGAAGCGUGGCGGCACCUGCCGCCGGUGGUAAAAAAGAUCGGAAGAGCACACGUCU	1.36
GGGUCGACAAUAGAUAAUCGCGUGGAUAUGGCACGCAAGUUUCUACCGGGCACCGUAAAUGUCCGACUGGAGCCGUUCGGGCGGCUAUAAACAGACCUCAGGCCCGAAGCGUGGCGGCACCUGCCGCCGGUGGUAAAAAAGAUCGGAAGAGCACACGUCU	1.22
GGGUCGACAAUAAAUAAUCGCGUGGAUAUGGCACGCAAGUUUCUACCGGGCACCGUAAAUGUCCGACUGGAGCCGUUCGGGCGGCUAUAAACAGACCUCAGGCCCGAAGCGUGGCGGCACCUGCCGCCGGUGGUAAAAAAGAUCGGAAGAGCACACGUCU	1.2
GGGUCGACAUUUCAUAAUCGCGUGGAUAUGGCACGCAAGUUUCUACCGGGCACCGUAAAUGUCCGACUGGAGCCGUUCGGGCGGCUAUAAACAGACCUCAGGCCCGAAGCGUGGCGGCACCUGCCGCCGGUGGUAAAAAAGAUCGGAAGAGCACACGUCU	1.21
GGGUCGACAUUGCAUAAUCGCGUGGAUAUGGCACGCAAGUUUCUACCGGGCACCGUAAAUGUCCGACUGGAGCCGUUCGGGCGGCUAUAAACAGACCUCAGGCCCGAAGCGUGGCGGCACCUGCCGCCGGUGGUAAAAAAGAUCGGAAGAGCACACGUCU	1.43
GGGUCGACAUUGUAUAAUCGCGUGGAUAUGGCACGCAAGUUUCUACCGGGCACCGUAAAUGUCCGACUGGAGCCGUUCGGGCGGCUAUAAACAGACCUCAGGCCCGAAGCGUGGCGGCACCUGCCGCCGGUGGUAAAAAAGAUCGGAAGAGCACACGUCU	1.2
GGGUCGACAUUGAAUAAUCGCGUGGAUAUGGCACGCAAGUUUCUACCGGGCACCGUAAAUGUCCGACUGGAGCCGUUCGGGCGGCUAUAAACAGACCUCAGGCCCGAAGCGUGGCGGCACCUGCCGCCGGUGGUAAAAAAGAUCGGAAGAGCACACGUCU	1.13
GGGUCGACAUUGGAUAAUCGCGUGGAUAUGGCACGCAAGUUUCUACCGGGCACCGUAAAUGUCCGACUGGAGCCGUUCGGGCGGCUAUAAACAGACCUCAGGCCCGAAGCGUGGCGGCACCUGCCGCCGGUGGUAAAAAAGAUCGGAAGAGCACACGUCU	1.12
GGGUCGACAUUUAAUAAUCGCGUGGAUAUGGCACGCAAGUUUCUACCGGGCACCGUAAAUGUCCGACUGGAGCCGUUCGGGCGGCUAUAAACAGACCUCAGGCCCGAAGCGUGGCGGCACCUGCCGCCGGUGGUAAAAAAGAUCGGAAGAGCACACGUCU	1.07
GGGUCGACAUUUGAUAAUCGCGUGGAUAUGGCACGCAAGUUUCUACCGGGCACCGUAAAUGUCCGACUGGAGCCGUUCGGGCGGCUAUAAACAGACCUCAGGCCCGAAGCGUGGCGGCACCUGCCGCCGGUGGUAAAAAAGAUCGGAAGAGCACACGUCU	1.09
GGGUCGACAUUUUAUAAUCGCGUGGAUAUGGCACGCAAGUUUCUACCGGGCACCGUAAAUGUCCGACUGGAGCCGUUCGGGCGGCUAUAAACAGACCUCAGGCCCGAAGCGUGGCGGCACCUGCCGCCGGUGGUAAAAAAGAUCGGAAGAGCACACGUCU	1.1
GGGUCGACAUUAGAUAAUCGCGUGGAUAUGGCACGCAAGUUUCUACCGGGCACCGUAAAUGUCCGACUGGAGCCGUUCGGGCGGCUAUAAACAGACCUCAGGCCCGAAGCGUGGCGGCACCUGCCGCCGGUGGUAAAAAAGAUCGGAAGAGCACACGUCU	1.14
GGGUCGACAUUAUAUAAUCGCGUGGAUAUGGCACGCAAGUUUCUACCGGGCACCGUAAAUGUCCGACUGGAGCCGUUCGGGCGGCUAUAAACAGACCUCAGGCCCGAAGCGUGGCGGCACCUGCCGCCGGUGGUAAAAAAGAUCGGAAGAGCACACGUCU	1.16
GGGUCGACAAUACAUAAUCGCGUGGAUAUGGCACGCAAGUUUCUACCGGGCACCGUAAAUGUCCGACUGGAGCCGUUCGGGCGGCUAUAAACAGACCUCAGGCCCGAAGCGUGGCGGCACCUGCCGCCGGUGGUAAAAAAGAUCGGAAGAGCACACGUCU	1.26
GGGUCGACAAUCCAUAAUCGCGUGGAUAUGGCACGCAAGUUUCUACCGGGCACCGUAAAUGUCCGACUGGAGCCGUUCGGGCGGCUAUAAACAGACCUCAGGCCCGAAGCGUGGCGGCACCUGCCGCCGGUGGUAAAAAAGAUCGGAAGAGCACACGUCU	1.37
